Broadly, the EC50 is the concentration giving half of the maximal effect. As a reminder, the Kd is the equilibrium constant for the complex coming apart. A lower Kd goes with higher affinity. Usually koff stands for the first-order rate constant of dissociation. A higher koff goes with fast dissociation. As usually defined, the kon is the rate constant with which the complex forms. A lower kon goes with slower complex formation.

Changes are numbered by the printed parent chain.

The target of experiment [1] is T1, full length human KLRG1 (cell-expressed) (human, UniProt Q96E93 1-195).
T1 construct: whole, on cells; also called CHO-human-KLRG1
T1 sequence (looked up): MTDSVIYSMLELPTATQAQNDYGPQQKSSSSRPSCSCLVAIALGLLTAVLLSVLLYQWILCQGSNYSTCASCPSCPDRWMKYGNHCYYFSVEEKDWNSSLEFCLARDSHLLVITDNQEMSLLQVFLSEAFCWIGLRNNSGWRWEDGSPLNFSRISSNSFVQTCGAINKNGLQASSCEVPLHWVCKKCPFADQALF
The experiment in a line: FACS on CHO cells expressing full length human KLRG1, anti-mouse detection. The method, then:
(§1) Binding of anti-KLRG1 monoclonal antibodies to cells that expressed human and cynomolgus-KLRG1 was carried out by FACS. Chinese hamster ovary (CHO) cells were stably transfected to express full length human KLRG1 (CHO-human-KLRG1) and cynomolgus KLRG1 (CHO-cynomolgus-KLRG1). […] Table 7 summarizes the EC50 binding data measured for selected antibodies.

In experiment [2] the target is T2, full length cynomolgus KLRG1 (cell-expressed) (cynomolgus, UniProt A0A2K5WAP9 1-186).
T2 construct: whole, on cells; also called CHO-cynomolgus-KLRG1; cyno KLRG1
T2 sequence: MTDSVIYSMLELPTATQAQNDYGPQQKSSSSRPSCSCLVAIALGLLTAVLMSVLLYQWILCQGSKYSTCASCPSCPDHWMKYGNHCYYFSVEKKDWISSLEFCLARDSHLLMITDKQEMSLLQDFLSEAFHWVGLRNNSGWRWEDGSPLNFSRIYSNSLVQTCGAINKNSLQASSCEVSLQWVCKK
The experiment in a line: FACS on CHO cells expressing full length cynomolgus KLRG1, anti-mouse detection. The protocol:
as §1

For experiment [3], the target named is T3, cyno KLRG1 extracellular domain (ECD) (cynomolgus, biotinylated in the Octet assay (site not stated)).
T3 construct: Recombinant proteins were made as FC fusion or HIS tagged versions; also called cynomolgus-KLRG1-ECD; cyno KRG1 ECD
T3 chain: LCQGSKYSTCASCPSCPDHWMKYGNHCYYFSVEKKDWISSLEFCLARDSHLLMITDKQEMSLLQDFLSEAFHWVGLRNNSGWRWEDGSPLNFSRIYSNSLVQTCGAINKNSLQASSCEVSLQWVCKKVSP
The experiment in a line: hybridoma screening for binding to cyno KLRG1 ECD.

Experiment [4] concerns the target T3, cyno KLRG1 extracellular domain (ECD). The experiment in a line: Octet BLI, biotinylated antigen on streptavidin sensor, antibody in solution, 1:1 fit. The method, then: (§2) Binging kinetics of humanized antibodies for human and cynomolgus KLRG1 were determined by Octet® Systems (ForteBio) measurement. The Octet® platform includes instruments, biosensors, reagents, and assay kits for analysis of biomolecular interactions in 96- and 384-well microplates for use in real-time, label-free analysis for determination of affinity, kinetics, and concentration. The experimental set-up includes immobilizing biotinylated recombinant antigen (Human-KLRG-ECD or cynomolgus-KLRG1-ECD) on a streptavidin Octet® sensor to produce antigen loaded sensors. […] Thereafter, the sensors can be exposed to a solution of 1× phosphate buffered saline (PBS) buffer devoid of antibody for approximately 600 seconds to observe dissociation kinetics (kdis). The resulting data can then be fitted to a 1:1 binding kinetics model using, for example, ForteBio analysis software to calculate the KD. Kinetic binding parameters derived by this method are summarized in Table 8 for three humanized antibodies.

Experiment [5] has as its target T4, human KLRG1 extracellular domain (ECD) (human, UniProt Q96E93 60-186, biotinylated in the Octet assay (site not stated)).
T4 construct: Recombinant proteins were made as FC fusion or HIS tagged versions; also called Human-KLRG-ECD; human KLRG1 ECD
T4 sequence: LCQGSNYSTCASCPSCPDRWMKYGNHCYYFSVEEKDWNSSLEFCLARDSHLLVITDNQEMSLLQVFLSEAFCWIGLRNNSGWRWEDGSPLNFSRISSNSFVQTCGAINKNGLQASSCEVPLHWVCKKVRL
Described as above. The method, then: as §2

Another experiment concerns the target T5, SPLNFSRISSNSFVQ
T5 peptide: SPLNFSRISSNSFVQ
The experiment in a line: peptide mapping: ABC_G1D03 on overlapping KLRG1 peptides, signal per peptide.

The target of the next experiment is T6, WEDGSPLNFSRISSN
T6 peptide: WEDGSPLNFSRISSN
Described as above.

B1: ABC_G1D05 (antibody, V domains shown)
VH: QVQLKQSGPGLVQPSQSLSITCTVSGFSLTTHGVHWVRQSPGKGLEWLGVIWSGGSTDYNAAFISRLSIRKDNSKSQVFFKMNSLQTNDTAIYYCARLRLPAMDYWGQGTSVTVSS
VL: QIVLTQSPTIMSASLGERVTMTCTASSSVSSTYLHWYQQKPGSSPKLWIYSTSNLASGVPARFSGSGSGTSYSLTISSMEAEDAATYYCHQYHRSPLSFGAGTKLELK
notes: Mouse hybridoma monoclonal antibody
Turning to B1, the concentration giving a half-maximal response (EC50) worked out at 5.15 nM in experiment [1] and 5.93 nM in experiment [2]. Moreover, the binding result in experiment [3] is given as “binds”.

B2: ABC_G1D04 (antibody, V domains shown)
VH: EVQLQQSGPELVKPGSSLMMSCKSSGYTFTDYNIHWVKQSHGKRLEWIGFIDPKNGGTLYSEKFKDKATLTINKSSSTAYMELRSLTSEDSAVFYCAPDYYGSAWFAYWGQGTLVTVSA
VL: DIVMSQSPSSLTVSVGENVTMSCKSSQNLLYTSNQKNYLAWYQQKPGHSPKLLISWASTRESGVPDRFTGSGSGTDFTLTITSVKAEDLAVFYCQQYYHYPTFGGGTKLEIK
notes: as for B1
For the molecule B2, the results for the 50% effective concentration (EC50) in experiment [1] and in experiment [2] were 213 nM and 7.2 nM, respectively. Further, the binding result in experiment [3] is listed as “binds”.

B3: ABC_G1D06 (antibody, V domains shown)
VH: QVQLQQSGAELVRPGASVTLSCKASGYKFSDYEIHWVKQTPVYGLEWIGALEPATGGTAYNPNFKGKAILTADKSSTTAYMELRSLTSEDSAVYYCSMHLAVYWGQGTLVTVSA
VL: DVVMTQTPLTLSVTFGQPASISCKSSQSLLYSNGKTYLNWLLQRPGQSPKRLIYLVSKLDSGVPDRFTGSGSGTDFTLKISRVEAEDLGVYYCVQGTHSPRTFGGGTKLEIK
notes: as for B1
In the case of B3, the EC50 stood at 72.5 nM in experiment [1] and 3.4 nM in experiment [2]. Besides, the binding result in experiment [3] is reported as “binds”.

B4: ABC_G1D02 (antibody, V domains shown)
VH: QVQLQQSGAELVRPGTSVKVSCKASGYAFTNYFIEWIKQRPGQGLEWIGVINPGSGGTNYNEKFKGKATLTADKSSSTAYMQLSSLTSEDSAVYFCTRPGHFDYWGQGTTLTVSS
VL: EIVLTQSPTTMAASPGEKITITCSASSSISSNYLHWYQQKPGFSPKLLIYKTSNLASGVPPRFSGSGSGTSYSLTIGTMEAEDVATYYCQQGNSIPRTFGGGTKLEIK
notes: as for B1
In the case of B4, the concentration for a half-maximal effect (EC50) in experiment [1] came to 9.11 nM; in experiment [2], 10.1 nM. Moreover, the binding result in experiment [3] is “binds”.

B5: ABC_HG1D02 (antibody, V domains shown)
VH: QVQLVQSGAEVKKPGSSVKVSCKASGYAFTNYFIEWVRQRPGQGLEWMGVINPGSGGTNYNEKFKGRVTITADKSSSTAYMELSSLRSEDTAVYYCARPGHFDYWGQGTTVTVSS
VL: EIVLTQSPTTLSLSPGERATLSCSASSSISSNYLHWYQQKPGFAPRLLIYKTSNLASGIPPRFSGSGSGTDFTLTISRLEPEDFAVYYCQQGNSIPRTFGQGTKVEIKR
notes: The printed VK entry ends in 'RTV' (start of the constant kappa domain)
In experiment [4], B5 yielded a Kd of 0.388 nM, a koff of 0.000142 s⁻¹ and a kon of 367000 M⁻¹ s⁻¹. Also, in experiment [5], the Kd came out at 0.0567 nM, the off-rate (koff) came to 3.07e-05 s⁻¹ and the kon amounted to 541000 M⁻¹ s⁻¹.

B6: ABC_G1D03 (antibody, V domains shown)
VH: EVQLQQSGPELVKPGASVKMSCKTSGYTFTDHNMHWLKQSHGKGLEWFGFINPNTGVTRYNQKFNGKATLTINKSSSTAYLDLRSLTSEDSAVYYCTRDYYGSAWFAYWGQGTLVTVSA
VL: DIVMSQSPASQTVSVGEKVTMSCKSSQTLLYSSDQKNYLAWYQQKPGQSPKLLIYWASTRESGVPDRFTGSGSGTDFTLTISSVKAEDLAVYYCQQYYNYPTFGGGTKLEIK
notes: as for B1
For B6, the half-maximal effective concentration (EC50) in experiment [1] is 6.3 nM; in experiment [2], 8.63 nM. Further, the binding result (with SPLNFSRISSNSFVQ; with WEDGSPLNFSRISSN; in experiment [3]) was “binds” each time.

B7: ABC_G1D01 (antibody, V domains shown)
VH: EVQLQQSGPELVKPGASVKMSCKASGYTFTDYNIHWVKQSHGKSLEWIGFFNPKNGVTINNQNFKGKAALTVNKSSSTAYMELRRLTSEDSAVYYCARDYYGTAWFAYWGQGTLVTVSA
VL: B6 VL with A9S, Q11L, T12A, K24R, T28S, D34N, Y97F, N99S
notes: as for B1
On to B7, for which the concentration giving a half-maximal response (EC50) in experiment [1] was 4.87 nM; in experiment [2] it was 3.44 nM.

B8: ABC_HG1D03 (antibody, V domains shown)
VH: EVQLVQSGAEVKKPGASVKVSCKASGYTFTDHNMHWVKQATGQGLEWFGFINPNTGVTRYNQKFQGRVTLTINKAISTAYLELSSLRSEDTAVYYCARDYYGSAWFAYWGQGTLVTVSS
VL: not shown
notes: The printed VK entry ends at '...FGGGTKV' (appears cut short of the usual end of the domain)
With B8, in experiment [4], the Kd was 0.0609 nM, the off-rate (koff) worked out at 3.82e-05 s⁻¹ and the on-rate (kon) was determined as 627000 M⁻¹ s⁻¹. In experiment [5], this molecule registered a Kd of 0.156 nM, a koff of 5.91e-05 s⁻¹ and a kon of 380000 M⁻¹ s⁻¹.
